For the assay, the target named is ADP-ribosylated ubiquitin (ADPR-Ub) (UniProt P0CG48). The experiment in a line: ITC. For orientation: Isothermal titration calorimetry measures the heat released or taken up as one component is titrated into another.

In general, Kd refers to the free concentration of one partner at which half of the binding sites on the other are occupied at equilibrium, for simple one-to-one binding. Read a low Kd as higher affinity. On to MavL_N322A, for which the Kd is 5.96 µM.
